What is called Kd is the constant that tells how readily two partners part at equilibrium. Higher therefore signals weaker binding.

B1: humanized 19.1 mAb with heavy chain variable region humanized 19.1 VH-4-59-01 (antibody, V domains shown)
VH: QVQLQESGPGLVKPSETLSLTCTVSGFSLTTYGVHWIRQPPGKGLEWIGVIWSGGDTDYNASFISRVTISVDTSKNQFSLKLSSVTAADTAVYYCARNKDYYTNYDFTMDYWGQGTTVTVSS
VL: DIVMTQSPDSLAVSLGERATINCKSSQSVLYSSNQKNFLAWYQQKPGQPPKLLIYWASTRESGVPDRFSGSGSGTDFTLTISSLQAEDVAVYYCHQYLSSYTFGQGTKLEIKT
B2: humanized 19.1 mAb with heavy chain variable region humanized 19.1 VH-3-66-04 (antibody, V domains shown)
VH: EVQLVESGGGLVQPGGSLRLSCAASGFSLTTYGVHWVRQAPGKGLEWVSVIWSGGDTDYNASFISRFTISRDNSKNTLYLQMNSLRAEDTAVYYCARNKDYYTNYDFTMDYWGQGTTVTVSS
VL: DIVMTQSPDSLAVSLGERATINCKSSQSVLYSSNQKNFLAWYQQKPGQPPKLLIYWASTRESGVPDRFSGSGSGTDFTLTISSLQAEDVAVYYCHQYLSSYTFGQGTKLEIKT
B3: mAb 19.1 (antibody, V domains shown)
VH: QVQLKQSGPGLVQPSQSLSISCTVSGFSLTTYGVHWVRQSPGKGLEWLGVIWSGGDTDYNASFISRLRINKDTSKSQVFFKMNSLQADDTAYYCARNKDYYTNYDFTMDYWGQGTSVTVSS
VL: NIMMTQSPSSLAVSAGEKVTMSCKSSQSVLYSSNQKNFLAWYQQKPGQSPKLLIYWASTRESGVPDRFTGSGSGTDFILTINSVQVEDQAVYYCHQYLSSYTFGGGTKLEIK
B4: chimeric 19.1 mAb (antibody, V domains shown)
VH: B3 VH
VL: NIMMTQSPSSLAVSAGEKVTMSCKSSQSVLYSSNQKNFLAWYQQKPGQSPKLLIYWASTRESGVPDRFTGSGSGTDFILTINSVQVEDQAVYYCHQYLSSYTFGGGTKLEIKT

Chain of human properdin (P27918 28-469): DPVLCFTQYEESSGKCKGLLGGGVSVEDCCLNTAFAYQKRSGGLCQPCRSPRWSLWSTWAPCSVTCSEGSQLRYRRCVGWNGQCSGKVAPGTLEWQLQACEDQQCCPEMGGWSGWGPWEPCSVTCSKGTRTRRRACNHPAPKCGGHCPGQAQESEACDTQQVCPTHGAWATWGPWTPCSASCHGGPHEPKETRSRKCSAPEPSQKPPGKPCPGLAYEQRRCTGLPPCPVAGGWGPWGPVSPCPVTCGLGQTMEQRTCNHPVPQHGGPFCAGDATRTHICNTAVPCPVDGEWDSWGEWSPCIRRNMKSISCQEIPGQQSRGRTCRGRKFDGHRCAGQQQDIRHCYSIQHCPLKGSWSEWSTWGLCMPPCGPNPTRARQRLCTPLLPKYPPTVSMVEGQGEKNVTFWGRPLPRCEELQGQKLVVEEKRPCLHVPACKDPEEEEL

The assay concerns the target human properdin (UniProt P27918 28-469). The experiment in a line: Biacore SPR. A general note: Surface plasmon resonance follows binding to a sensor surface in real time, without labels.
B1 yielded a dissociation constant Kd of 0.58 nM. To B2 belongs 0.47 nM; to B3, 0.00284 nM. To B4 belongs 0.00289 nM.

Values taken from patent US20140212427A1 (published 2014).
